According to PMC8056383, “Entropic Inhibition: How the Activity of a AAA+ Machine Is Modulated by Its Substrate-Binding Domain” (ACS Chemical Biology, 2021):

What was measured:
[1] = molecular target: the molecule itself; test: native gel or EMSA; native polyacrylamide gel electrophoresis; assembly of ClpB and ΔNClpB (Figure S2)
[2] = molecular target: the molecule itself; test: native gel or EMSA; native gel electrophoresis in the presence of 2 mM ATP; assembly of the 23C-176C construct (Figure S1)

B1: ΔNClpB, Thermus thermophilus ClpB lacking the N-terminal domain (domain or fragment)
chain: not shown
notes: ClpB, Thermus thermophilus, variant beginning at residue 141 (Val); lacks the first 140 residues; In the smFRET experiments one S288C-S631C protomer labelled with AF488/AF594 sat in hexamers of unlabelled ΔNClpB; also called NTD-truncated ClpB; truncated variant; source: cloned into a pET28b vector, expressed and purified (protocol in the Supplementary Methods)
[1]
  binding result: binds

B2: 23C-176C double-cysteine mutant of full-length ClpB, labelled with Alexa Fluor 488 and Alexa Fluor 594 (natural protein)
chain: not shown
modifications: Alexa Fluor 488 and Alexa Fluor 594 (C5 maleimide) on the cysteines at 23 and 176
notes: The ATPase assay used the fully labelled protein. smFRET and FLCS used one labelled protomer in hexamers of WT ClpB; source: cloned into a pET28b vector, expressed and purified (protocol in the Supplementary Methods)
[2]
  binding result: binds

B3: Thermus thermophilus ClpB, full-length (natural protein)
chain: not shown
notes: ClpB, Thermus thermophilus, full-length protein (NTD, NBD1, MD, NBD2); also called TT ClpB; TT; ClpB; source: cloned into a pET28b vector, expressed and purified (protocol in the Supplementary Methods)
[1]
  binding result: binds
